# Laboratory results taken from patent US11504441B2, “Radiolabeled compounds targeting the prostate-specific membrane antigen” (PROVINCIAL HEALTH SERVICES AUTHORITY, priority 2019, dated 2022).
# Experiments:
# in vivo [1] = test: in vivo; set-up: species or system mice; conditions: male, NODSCID 1L2RγKO, mouse, iv, total radioactivity
# in vivo [2] = conditions: male, NODSCID 1L2RγKO, mouse, iv, total radioactivity, kidney uptake
# [3] = tested on: PSMA-expressing LNCaP cancer xenografts; conditions: mouse, in vivo
structure (smiles),measurement,setting,value
"COc1ccc(CCCC(=O)NCC(=O)N[C@@H](CCCCNC(=O)CN2CCN(CC(=O)O)CCN(CC(=O)O)CCN(CC(=O)O)CC2)C(=O)NC[C@H]2CC[C@H](C(=O)N[C@@H](Cc3c4ccccc4cc4ccccc34)C(=O)NCCCC[C@H](NC(=O)N[C@@H](CSCC(=O)O)C(=O)O)C(=O)O)CC2)cc1 [177Lu-HTK04048, metal not drawn]",tissue uptake at 1 h,in vivo [1]; Adrenal glands uptake,3.95 ± 0.34 %ID/g
same,tissue uptake at 4 h,in vivo [1]; Adrenal glands uptake,2.1 ± 0.22 %ID/g
same,tissue uptake at 24 h,in vivo [1]; Adrenal glands uptake,0.49 ± 0.04 %ID/g
same,tissue uptake at 72 h,in vivo [1]; Adrenal glands uptake,0.34 ± 0.03 %ID/g
same,tissue uptake at 120 h,in vivo [1]; Adrenal glands uptake,0.37 ± 0.09 %ID/g
same,tissue uptake at 1 h,in vivo [1]; Blood uptake,17.7 ± 2.05 %ID/g
same,tissue uptake at 4 h,in vivo [1]; Blood uptake,12.3 ± 1.56 %ID/g
same,tissue uptake at 24 h,in vivo [1]; Blood uptake,0.68 ± 0.11 %ID/g
same,tissue uptake at 72 h,in vivo [1]; Blood uptake,0.12 ± 0.01 %ID/g
same,tissue uptake at 120 h,in vivo [1]; Blood uptake,0.05 ± 0.02 %ID/g
same,tissue uptake at 1 h,in vivo [1]; Bone uptake,1.04 ± 0.2 %ID/g
same,tissue uptake at 4 h,in vivo [1]; Bone uptake,0.74 ± 0.09 %ID/g
same,tissue uptake at 24 h,in vivo [1]; Bone uptake,0.11 ± 0.02 %ID/g
same,tissue uptake at 72 h,in vivo [1]; Bone uptake,0.07 ± 0.01 %ID/g
same,tissue uptake at 120 h,in vivo [1]; Bone uptake,0.07 ± 0.01 %ID/g
same,tissue uptake at 1 h,in vivo [1]; Brain uptake,0.31 ± 0.02 %ID/g
same,tissue uptake at 4 h,in vivo [1]; Brain uptake,0.18 ± 0.02 %ID/g
same,tissue uptake at 24 h,in vivo [1]; Brain uptake,0.03 %ID/g
same,tissue uptake at 72 h,in vivo [1]; Brain uptake,0.01 %ID/g
same,tissue uptake at 120 h,in vivo [1]; Brain uptake,0.01 %ID/g
same,tissue uptake at 1 h,in vivo [1]; Fat uptake,1.32 ± 0.17 %ID/g
same,tissue uptake at 4 h,in vivo [1]; Fat uptake,1 ± 0.13 %ID/g
same,tissue uptake at 24 h,in vivo [1]; Fat uptake,0.15 ± 0.06 %ID/g
same,tissue uptake at 72 h,in vivo [1]; Fat uptake,0.08 ± 0.03 %ID/g
same,tissue uptake at 120 h,in vivo [1]; Fat uptake,0.06 ± 0.03 %ID/g
same,tissue uptake at 1 h,in vivo [1]; Heart uptake,4.41 ± 0.22 %ID/g
same,tissue uptake at 4 h,in vivo [1]; Heart uptake,2.99 ± 0.36 %ID/g
same,tissue uptake at 24 h,in vivo [1]; Heart uptake,0.36 ± 0.04 %ID/g
same,tissue uptake at 72 h,in vivo [1]; Heart uptake,0.16 ± 0.01 %ID/g
same,tissue uptake at 120 h,in vivo [1]; Heart uptake,0.1 ± 0.02 %ID/g
same,tissue uptake at 1 h,in vivo [1]; Intestine uptake,1.26 ± 0.2 %ID/g
same,tissue uptake at 4 h,in vivo [1]; Intestine uptake,1.03 ± 0.1 %ID/g
same,tissue uptake at 24 h,in vivo [1]; Intestine uptake,0.49 ± 0.41 %ID/g
same,tissue uptake at 72 h,in vivo [1]; Intestine uptake,0.15 ± 0.09 %ID/g
same,tissue uptake at 120 h,in vivo [1]; Intestine uptake,0.05 ± 0.02 %ID/g
same,tissue uptake at 1 h,in vivo [1]; Kidneys uptake,14.5 ± 3.33 %ID/g
same,tissue uptake at 4 h,in vivo [1]; Kidneys uptake,12.4 ± 1.36 %ID/g
same,tissue uptake at 24 h,in vivo [1]; Kidneys uptake,5.06 ± 0.91 %ID/g
same,tissue uptake at 72 h,in vivo [1]; Kidneys uptake,2.28 ± 0.24 %ID/g
same,tissue uptake at 120 h,in vivo [1]; Kidneys uptake,1.69 ± 0.58 %ID/g
same,tissue uptake at 1 h,in vivo [1]; Lacrimal uptake,0.5 ± 0.05 %ID/g
same,tissue uptake at 4 h,in vivo [1]; Lacrimal uptake,0.32 ± 0.13 %ID/g
same,tissue uptake at 24 h,in vivo [1]; Lacrimal uptake,0.05 ± 0.01 %ID/g
same,tissue uptake at 72 h,in vivo [1]; Lacrimal uptake,0.01 ± 0.01 %ID/g
same,tissue uptake at 120 h,in vivo [1]; Lacrimal uptake,0.01 ± 0.01 %ID/g
same,tissue uptake at 1 h,in vivo [1]; Liver uptake,3.95 ± 0.83 %ID/g
same,tissue uptake at 4 h,in vivo [1]; Liver uptake,2.16 ± 0.17 %ID/g
same,tissue uptake at 24 h,in vivo [1]; Liver uptake,0.45 ± 0.04 %ID/g
same,tissue uptake at 72 h,in vivo [1]; Liver uptake,0.26 ± 0.01 %ID/g
same,tissue uptake at 120 h,in vivo [1]; Liver uptake,0.22 ± 0.08 %ID/g
same,tissue uptake at 1 h,in vivo [1]; Lungs uptake,9.01 ± 0.91 %ID/g
same,tissue uptake at 4 h,in vivo [1]; Lungs uptake,6.35 ± 0.78 %ID/g
same,tissue uptake at 24 h,in vivo [1]; Lungs uptake,1.09 ± 0.33 %ID/g
same,tissue uptake at 72 h,in vivo [1]; Lungs uptake,0.29 ± 0.05 %ID/g
same,tissue uptake at 120 h,in vivo [1]; Lungs uptake,0.15 ± 0.05 %ID/g
same,tissue uptake at 1 h,in vivo [1]; Muscle uptake,1.42 ± 0.11 %ID/g
same,tissue uptake at 4 h,in vivo [1]; Muscle uptake,1 ± 0.1 %ID/g
same,tissue uptake at 24 h,in vivo [1]; Muscle uptake,0.11 ± 0.01 %ID/g
same,tissue uptake at 72 h,in vivo [1]; Muscle uptake,0.04 ± 0.01 %ID/g
same,tissue uptake at 120 h,in vivo [1]; Muscle uptake,0.05 ± 0.05 %ID/g
same,tissue uptake at 1 h,in vivo [1]; Pancreas uptake,1.7 ± 0.17 %ID/g
same,tissue uptake at 4 h,in vivo [1]; Pancreas uptake,1.21 ± 0.14 %ID/g
same,tissue uptake at 24 h,in vivo [1]; Pancreas uptake,0.17 ± 0.03 %ID/g
same,tissue uptake at 72 h,in vivo [1]; Pancreas uptake,0.07 ± 0.01 %ID/g
same,tissue uptake at 120 h,in vivo [1]; Pancreas uptake,0.04 ± 0.01 %ID/g
same,tissue uptake at 1 h,in vivo [1]; Salivary uptake,2.7 ± 0.29 %ID/g
same,tissue uptake at 4 h,in vivo [1]; Salivary uptake,2.01 ± 0.17 %ID/g
same,tissue uptake at 24 h,in vivo [1]; Salivary uptake,0.42 ± 0.07 %ID/g
same,tissue uptake at 72 h,in vivo [1]; Salivary uptake,0.2 ± 0.03 %ID/g
same,tissue uptake at 120 h,in vivo [1]; Salivary uptake,0.14 ± 0.02 %ID/g
same,tissue uptake at 1 h,in vivo [1]; Seminal uptake,1.14 ± 0.17 %ID/g
same,tissue uptake at 4 h,in vivo [1]; Seminal uptake,0.92 ± 0.2 %ID/g
same,tissue uptake at 24 h,in vivo [1]; Seminal uptake,0.11 ± 0.03 %ID/g
same,tissue uptake at 72 h,in vivo [1]; Seminal uptake,0.06 ± 0.01 %ID/g
same,tissue uptake at 120 h,in vivo [1]; Seminal uptake,0.04 ± 0.01 %ID/g
same,tissue uptake at 1 h,in vivo [1]; Spleen uptake,2.54 ± 0.6 %ID/g
same,tissue uptake at 4 h,in vivo [1]; Spleen uptake,2.1 ± 0.39 %ID/g
same,tissue uptake at 24 h,in vivo [1]; Spleen uptake,0.6 ± 0.05 %ID/g
same,tissue uptake at 72 h,in vivo [1]; Spleen uptake,0.62 ± 0.14 %ID/g
same,tissue uptake at 120 h,in vivo [1]; Spleen uptake,0.92 ± 0.3 %ID/g
same,tissue uptake at 1 h,in vivo [1]; Stomach uptake,0.74 ± 0.14 %ID/g
same,tissue uptake at 4 h,in vivo [1]; Stomach uptake,0.81 ± 0.04 %ID/g
same,tissue uptake at 24 h,in vivo [1]; Stomach uptake,0.89 ± 0.84 %ID/g
same,tissue uptake at 72 h,in vivo [1]; Stomach uptake,0.23 ± 0.16 %ID/g
same,tissue uptake at 120 h,in vivo [1]; Stomach uptake,0.03 ± 0.01 %ID/g
same,tissue uptake at 1 h,in vivo [1]; Tail uptake,3.57 ± 0.35 %ID/g
same,tissue uptake at 4 h,in vivo [1]; Tail uptake,2.72 ± 0.61 %ID/g
same,tissue uptake at 24 h,in vivo [1]; Tail uptake,0.4 ± 0.17 %ID/g
same,tissue uptake at 72 h,in vivo [1]; Tail uptake,0.15 ± 0.03 %ID/g
same,tissue uptake at 120 h,in vivo [1]; Tail uptake,0.19 ± 0.13 %ID/g
same,tissue uptake at 1 h,in vivo [1]; Testes uptake,2.25 ± 0.3 %ID/g
same,tissue uptake at 4 h,in vivo [1]; Testes uptake,2.68 ± 0.16 %ID/g
same,tissue uptake at 24 h,in vivo [1]; Testes uptake,0.73 ± 0.32 %ID/g
same,tissue uptake at 72 h,in vivo [1]; Testes uptake,0.34 ± 0.03 %ID/g
same,tissue uptake at 120 h,in vivo [1]; Testes uptake,0.26 ± 0.04 %ID/g
same,tissue uptake at 1 h,in vivo [1]; Thyroid uptake,3.79 ± 0.23 %ID/g
same,tissue uptake at 4 h,in vivo [1]; Thyroid uptake,2.69 ± 0.26 %ID/g
same,tissue uptake at 24 h,in vivo [1]; Thyroid uptake,0.55 ± 0.07 %ID/g
same,tissue uptake at 72 h,in vivo [1]; Thyroid uptake,0.31 ± 0.04 %ID/g
same,tissue uptake at 120 h,in vivo [1]; Thyroid uptake,0.19 ± 0.01 %ID/g
same,tissue uptake at 1 h,in vivo [1]; Tumor uptake,15.6 ± 2.98 %ID/g
same,tissue uptake at 4 h,in vivo [1]; Tumor uptake,46.5 ± 28.4 %ID/g
same,tissue uptake at 24 h,in vivo [1]; Tumor uptake,54.3 ± 10.6 %ID/g
same,tissue uptake at 72 h,in vivo [1]; Tumor uptake,66.3 ± 18.7 %ID/g
same,tissue uptake at 120 h,in vivo [1]; Tumor uptake,74 ± 35.5 %ID/g
O=C(O)CC[C@H](NC(=O)N[C@@H](CCCCNC(=O)[C@H](Cc1c2ccccc2cc2ccccc12)NC(=O)C1CCC(CNC(=O)CN2CCN(CC(=O)O)CCN(CC(=O)O)CCN(CC(=O)O)CC2)CC1)C(=O)O)C(=O)O (some centres unmarked) [HTK03041],tissue uptake at 1 h,in vivo [2],170 %ID/g
O=C(O)CCC[C@H](NC(=O)N[C@@H](CCCCNC(=O)[C@H](Cc1c2ccccc2cc2ccccc12)NC(=O)[C@H]1CC[C@H](CNC(=O)CN2CCN(CC(=O)O)CCN(CC(=O)O)CCN(CC(=O)O)CC2)CC1)C(=O)O)C(=O)O [HTK03149],uptake in kidney and salivary gland compared to HTK03041,[3],significantly decreases the uptake
